Test results from US20130157932A1, “NGAL AND URINARY TRACT INFECTION” (The Trustees of Columbia University in the City of New York, priority 2010, published 2013).
“Also recorded” adds a separate entry of the source.

Legend:
[1] = test system: UPEC iron acquisition genes; experiment: Real time PCR of UPEC iron acquisition genes; format: cell-based, Escherichia coli
Text: To determine whether NGAL-Scn induced bacterial iron starvation, we measured a series of iron acquisition systems (9, 10) that are regulated by iron load via fur, including catecholates enterochelin (ent genes) and salmochelin (iro genes), the hydroxamate aerobactin (iuc genes) (11, 12), their receptors, fepA, iroN (13-15), and iutA, respectively, and additionally the heme scavenging chu receptors (15). […] In sum, uNGAL-Scn is expressed within hours of the onset of infection in vivo, and it is required to limit bacterial growth during the early phases of acute cystitis, most likely by blocking iron acquisition.
Total RNA was isolated with the mirVANA (for eukaryotic cells) or ribopure (for bacteria) RNA extraction kits (Ambion). First strand cDNA was synthesized with Superscript III (Invitrogen). Real-time PCR was performed in a 7500 Fast (Applied Biosystems) with a SYBR green supermix reagent (Fisher) and primers (Table 2) using β-actin (eukaryotic cells) and gapA (for bacteria) as internal controls. Fold amplification of transcripts was measured by the […] method.

[2] = test system: Ngal expression in the kidney; experiment: Kidney Ngal expression (QPCR) after lipid A/LPS in reciprocal kidney cross-transplants; format: in vivo, mouse; details: 1 mg/kg, vs untreated cross transplant, n=3
Method: To determine whether uNGAL originated from the kidney in a TLR-dependent fashion, kidney transplantation between Tlr-4-mutant CH3/HeJ mice and wild type CH3/HeOuJ mice was performed. To evaluate the contribution of TLR signaling to NGAL expression a cross-transplant model using TLR mutants and systemic administration of LPS as a positive control was used. The CH3/HeJ kidneys from the LPS-insensitive mice were transplanted into CH3/HeOuJ LPS-sensitive (control) mouse bodies, and vice versa. Two weeks after graft maturation, when uNGAL and sCr had stabilized to normal values, a low dose of lipid A (1 mg/kg of body weight) was administered to induce Ngal expression in the kidney (FIG. 4a). […] It is not surprising that there was some Ngal induction in the knockout (KO) kidney because CH3/HeJ are partial KOs and it has also been previously shown that lipid A can signal through the MyD88-dependent pathway without a functioning Tlr4. […]
To identify elements of the pathway that detect UPEC, we evaluated whether IC could respond to a low dose of LPS (i.p. 1 mg kg^−1), a TLR4 agonist. […]
Surgical cross-transplants (1, 44) were monitored for two weeks until serum creatinine stabilized to 0.2 mg dL^−1 and uNGAL-Scn was undetectable prior to ip challenge with LPS (1 mg kg^−1).

[3] = test system: explanted bladders; experiment: NGAL-Scn secretion by bladders explanted from LPS treated mice; format: in vivo, mouse
Method: FIGS. 17A-B. C57/BL6 mice challenged with i.p. LPS (1 mg kg^−1) were explanted and media collected at 12 h and 24 hr of culture. FIG. 17A. […] FIG. 17B. NGAL-Scn was detected by Western blot.
Because both the bladder and kidney might contribute to uNGAL-Scn expression, we performed in situ hybridization 1 d post-TU challenge with UPEC (20-30 μl of 5×10^8 CFU ml^−1 i.e. ˜1×10^7 total CFU). We found Ngal-Scn message in collecting duct epithelia (FIG. 8H) (1) and in a thin luminal layer of bladder epithelia (FIG. 8I), but the majority of Ngal-Scn transcripts were found in the kidney (FIG. 8J). Moreover, in a controlled experiment, bladders explanted from mice treated with LPS (1 mg kg^−1) secreted approximately 10 ng per bladder over 12 h (FIG. 17), a small percentage of even a single collection of urine (250 ng ul^−1) from the treated mouse. In sum, while many types of genitourinary epithelia can express uNGAL-Scn in response to cystitis, the kidney was a dominant source of NGAL-Scn, even though kidney bacteria fell at, or below, our limit of detection (10^2 CFU kidney^−1; FIG. 18), and an inoculum less than 50 μl is not likely to generate gross vesico-ureteral reflux (VUR) (24).

[4] = test system: NGAL-Scn expression; experiment: NGAL-Scn expression in mice after i.p. LPS; format: in vivo, mouse
Method: To identify elements of the pathway that detect UPEC, we evaluated whether IC could respond to a low dose of LPS (i.p. 1 mg kg^−1), a TLR4 agonist. […] To assess the role of TLR4 further, we inoculated LPS-responsive C3H/HeN (Lps“) and C3H/HeOuJ (Lps”) mice and LPS-defective C3H/HeJ (Lps^d) mice by TU with […] of 5×10^8 CFU ml^−1 (n=15). […] To confirm that kidney expressed TLR4 was critical, we cross-transplanted Lps^d kidneys into nephrectomized Lps^n controls and vice versa. […] Concurrently, TLR4 modulates the burden of urinary infection, by regulating the expression of NGAL-Scn in kidney epithelia.

[5] = test system: uropathogenic Escherichia coli strain (CFT073); experiment: In vitro growth of UPEC CFT073 in M9 minimal medium or urine; format: cell-based; details: for bacterial growth after addition of FeCl3 to NGAL: M9 with NGAL 5 μM plus FeCl3 1 mM; for bacterial growth (optical density): M9 minimal medium; for growth of UPEC (OD600) in urine: human urine pH 5.8 (<pH 6.0), NGAL-Scn 5 μM
Text: To investigate the relationship between NGAL and UPEC a pyelonephritogenic clinical isolate of uropathogenic Escherichia coli, CFT073, was aliquoted in 96 well plates containing M9 minimal medium supplemented with MgCl2 and glucose (see green hashed line: FIG. 1a), and bacterial growth was monitored by spectrophotometry.
Next, we tested whether NGAL-Scn was sufficient to inhibit urinary bacterial growth. We used UPECs grown to log phase in an iron restricted minimal media (M9), and then subsequently transferred the bacteria into urine or M9. Growth in human urine (<pH 6.0) was similar to growth in acidified M9 (<pH 6.0; FIG. 8C, D).
A single colony of CFT073 was selected from a plate and grown in M9 to log phase. Bacteria were pelleted and resuspended in either M9 or urine and monitored in a 96 well plate on a Tecan 200 Promicroplate reader for up to 72 h.

[6] = test system: Primary Ngal-Luciferase2/mCherry medullary cells; experiment: NGAL-Luc2 expression in primary Ngal-Luciferase2/mCherry kidney cells co-cultured with UPEC; format: cell-based, mouse; details: co-culture with UPEC 3 h; antibiotic added at the time of UPEC; n=3
Method: […] Alternatively, primary cells were treated with Lipid A and in some cases with NF-kB inhibitors, MG132 (Cayman Chemical), and Analogues 27, 30, and 3121 and Analogue 3022. The Luciferase substrate (Dual-Glo™ Luciferase Assay System; Promega) was added and luminescence from Luc2 and fluorescence from mC (excitation of 500-550 nm and emission of 575-650 nm) were imaged in a Xenogen IVIS optical imaging system.
Luc2/mC di-fusion reporter mice (8-12 weeks of age) were perfused with PBS and kidney cells were isolated with collagenase (2 mg ml^−1; Sigma), and cultured (1×10^5 well^−1 in 24-well plates; Falcon) in DMEM/F12 medium supplemented with 10% FBS, 1% penicillin-streptomycin, and 46 mg/l L-Valine for 24 h. […] Luciferase substrate (Dual-Glo Luciferase Assay System; Promega) was added and luminescence from Luc2 and fluorescence from mC (excitation 500-550 nm and emission 575-650 nm) were imaged in a Xenogen IVIS optical imaging system.

[7] = test system: Enterochelin:Fe; experiment: Enterochelin:Fe capture by NGAL-Scn; format: binding; details: 3:1 Enterochelin:Fe::Ngal-Scn ratio; washed 5 times on 10 k filter
Method: . IPTG (0.2 mM final concentration) was added for 5 h. Bacterial pellets were lysed by sonication in lysis buffer, followed by Triton-X 100 (0.5%) treatment for 30 min on ice. Supernatant was collected after high speed centrifugation and filter sterilized (0.45 μm). NGAL-Scn-GST was purified by binding to Glutathione Sepharose beads followed by cleavage of the GST tag with thrombin. Released protein was fractionated by a Sephacryl S100HR column. Enterochelin:Fe capture by NGAL-Scn was tested (Emc Microcollections gmbh) at a 3:1 Enterochelin:Fe::Ngal-Scn ratio.

[8] = test system: Enterochelin:Fe; details: pH 4.0; cited from earlier work
[9] = M9 with iron added to match urinary concentration (806 nM)

CC(=O)N(O)CCCCCNC(=O)CCC(=O)N(O)CCCCCNC(=O)CCC(=O)N(O)CCCCCN [DFO, reference compound]
UPEC iron acquisition gene expression with DFO ([1]; M9 media, DFO 50 μM or 5 μM, n=5): modulated

Lipid A [LPS]
increase in Ngal expression, Tlr-4-mutant (Lps^d) kidney in wild type (Lps^n) host [2]: 4.5±2.6 fold
increase in Ngal expression, wild type (Lps^n) kidney in Tlr-4-mutant (Lps^d) host [2]: 15.6±2.3 fold
NGAL-Scn upregulation in bladder explant media at 12 h ([3]; C57/BL6, i.p. LPS 1 mg kg^−1, 12 h of culture, vs control, n=10): 2 fold
NGAL-Scn upregulation in bladder explant media at 24 h ([3]; C57/BL6, i.p. LPS 1 mg kg^−1, 24 h of culture, vs control, n=10): 5 fold
NGAL-Scn secreted by explanted bladder ([3]; LPS 1 mg kg^−1, over 12 h): approximately 10 ng per bladder
NGAL-Scn in a single collection of urine from the treated mouse ([4]; LPS 1 mg kg^−1): 250 ng/µL
NGAL-Scn expression in intercalated cells / kidney medulla ([4]; i.p. LPS 1 mg kg^−1, in situ hybridization): induced NGAL-Scn expression; also recorded: detected in alternating cells

[Cl][Fe]([Cl])[Cl] [FeCl3, reference compound]
bacterial growth after addition of FeCl3 to NGAL [5]: rescued
bacterial growth after addition of FeCl3 to NGAL ([5]; listed as iron): reversed

gentamicin
NGAL-Luc2 expression in response to UPEC [6]: blunted

B1: Neutrophil Gelatinase Associated Lipocalin (NGAL)-Siderocalin (Scn) (protein, UniProt P11672 21-200, looked up)
Neutrophil …: QDSTQNLIPAPSLLTVPLQPDFRSDQFRGRWYVVGLAGNAVQKKTEGSFTMYSTIYELQENNSYNVTSILVRDQDQGCRYWIRTFVPSSRAGQFTLGNMHRYPQVQSYNVQVATTDYNQFAMVFFRKTSENKQYFKITLYGRTKELSPELKERFTRFAKSLGLKDDNIIFSVPTDQCIDN
modifications: recombinant, E. coli
notes: Recombinant mouse NGAL-Scn protein produced in BL21 E. coli
Enterochelin:Fe binding by coloration [7]: binding detected
EntF activation [1, 9]: 2410 fold
iucD activation [1, 9]: 16970 fold
iutA activation [1, 9]: 1.9 fold
chuS upregulation ([1]; UPEC in M9, NGAL-Scn 5 μM): 26.9 fold
entA upregulation ([1]; UPEC in M9, NGAL-Scn 5 μM): 396.2 fold
entF upregulation ([1]; UPEC in M9, NGAL-Scn 5 μM): 36294.5 fold
fepA upregulation ([1]; UPEC in M9, NGAL-Scn 5 μM): 18.0 fold
iroN upregulation ([1]; UPEC in M9, NGAL-Scn 5 μM): 207 fold
iucA upregulation ([1]; UPEC in M9, NGAL-Scn 5 μM): 12568.5 fold
iucD upregulation ([1]; UPEC in M9, NGAL-Scn 5 μM): 19.0 fold
iutA upregulation ([1]; UPEC in M9, NGAL-Scn 5 μM): 13.4 fold
entA, entF, and iha gene expression ([1]; UPEC in M9, NGAL-Scn 5 μM for 30 min, n=5): upregulation
bacterial growth (optical density) ([5]; NGAL 5 μM): greatly inhibited
bacterial growth (optical density) ([5]; NGAL 5 μM, listed as mouse (m) NGAL): significantly inhibited
bacterial growth (optical density) ([5]; NGAL 5 μM, listed as uNGAL): inhibit growth
growth of UPEC in M9 at pH 5.8 ([5]; M9 pH 5.8 (typical urine pH), NGAL 5 μM, n=3): robust inhibition
growth of UPEC in M9 at pH 7 ([5]; M9 pH 7, NGAL 5 μM, n=3): reduced (and variable) growth inhibition
growth of UPEC (OD600) in urine ([5]; n=3): greatly inhibited
growth of UPEC (OD600) in urine ([5]; n=3, listed as uNGAL-Scn): inhibited the growth
enterochelin binding at low pH [8]: binds enterochelin even at pH 4.0
